# Data from US20210253718A1, “FRIZZLED5 PROTEIN-BINDING AGENTS” (Modmab Therapeutics Corporation, priority 2016, published 2021).
# How the values were obtained:
# FZD10 CRD [1] = biological target: T1, FZD10 CRD (Homo sapiens, UniProt Q9ULW2); test: Flow cytometry of anti-FZD5 Fab binding to CHO cells overexpressing Frizzled CRD
# T1 construct: 30-156; GPI anchor signal (C); expressed in transfected cells; host or cells: CHO cells, lentiviral pLenti-puro
# T1 sequence (Q9ULW2 30-156): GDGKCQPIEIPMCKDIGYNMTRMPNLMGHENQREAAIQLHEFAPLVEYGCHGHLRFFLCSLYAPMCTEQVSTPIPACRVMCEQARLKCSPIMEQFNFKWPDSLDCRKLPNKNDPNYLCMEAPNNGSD
# Procedure: (§1) Plasmids: pLCKO lentiviral vector used for knockout (TKO) library construction and expression of individual gRNAs was constructed as described previously (Hart et al., 2015). Briefly, single guide RNA (sgRNA) scaffold was amplified from px330 (Addgene 42230) and cloned into pLKO.TRC005 lentiviral vector (Broad Institute, Cambridge, Mass.) using AgeI/EcoRI restriction sites. BfuAI sites were added at the 5′ end of the sgRNA scaffold for cloning the TKO library or individual gRNA target sequences. Lenti Cas9-2A-BsdR vector used to generate Cas9 stable expression cell lines was constructed as described previously (Hart et al., 2015). Briefly, lentiCRISPR pXPR_001 (Addgene 49535) was modified through removal of the sgRNA scaffold region through NdeI/EcoRI digest and blunt ends generation using Large Klenow Fragment (NEB). 2A-puro was replaced with 2A-BsdR by PCR using the NheI/MluI sites. Each of the 10 human Frizzled cysteine rich domains (CRDs) were cloned into the lentiviral expression plasmid pLenti-puro in the following cassette: FZD_CRD-MYC-GPI.
# (§2) Flow cytometry: Primary staining of cells was performed by treatment with 200 nM Frizzled profiler Fab. Alexa Fluor 488 AffiniPure F(ab′)2 was used as the secondary antibody (Jackson ImmunoResearch #109-546-097). c-Myc (9E10) IgG1 (primary antibody, Santa Cruz, lot #D0306) and Alexa Fluor 488 IgG (secondary antibody, Life technologies, lot #1458649) were used as controls. Dead cells were excluded by staining with Fixable Viability Dye eFluor 660 (eBioscience, catalogue number 65-0864). All reagents were used as per manufacturer's instructions. Flow cytometry was performed on a BD FACSCanto II flow cytometer (BD Biosciences), and data were analyzed with FlowJo software (FlowJo, LLC).
# (§3) To confirm that the FZD5-WNT7B circuit is not driven simply by expression and rule out the possibility of a disconnect between RNA and protein levels for the Wnt receptors in HPAF-II cells, a panel of recombinant Fabs were generated, alternatively referred to herein as ‘Frizzled profiler’, that can detect and discriminate all but one of the ten Frizzled receptors. […] To characterize the binding specificity of these Fabs on cells, a panel of 10 CHO cell lines was generated, each expressing the CRD domain of a different myc-tagged Frizzled family member anchored at the plasma membrane through a GPI anchor (CHO-myc-FZDGPI). Despite the high sequence identity between Frizzled family members (FIG. 7A, FIG. 7B), selective Fabs were identified for FZD4, FZD5, FZD6 and FZD10 as assessed by immunofluorescence and flow cytometry (FIG. 7D and FIG. 8). […] The FZD8 CRD is most homologous to that of FZD5 (FIG. 7B). These Fabs can be used to discriminate expression of FZD1, FZD2, FZD4, FZD5, FZD6, FZD7, FZD8, FZD9 and FZD10 (FIG. 7D and FIG. 8). The ‘Frizzled profiler’ therefore consists of 10 different Fabs that can be used to discriminate expression of 9 different Frizzled family members. The Frizzled profiler was then used to confirm that HPAF-II cells express FZD1, FZD5, FZD6 and possibly FZD8 (FIG. 7E).
# (§4) The binding of anti-FZD5 Fabs to cell surface-expressed Frizzled protein was further determined for each member of the Frizzled family via flow cytometry and immunofluorescence analysis of a panel of 10 CHO cell lines, each ectopically over-expressing the extracellular cysteine-rich domain (CRD) of a different Frizzled protein family member.
# FZD5 CRD = biological target: T2, FZD5 CRD (Homo sapiens, UniProt Q13467); test: as above
# T2 construct: K29-T156; GPI anchor signal (C); expressed in transfected cells; host or cells: CHO cells, lentiviral pLenti-puro
# T2 sequence (Q13467 29-156): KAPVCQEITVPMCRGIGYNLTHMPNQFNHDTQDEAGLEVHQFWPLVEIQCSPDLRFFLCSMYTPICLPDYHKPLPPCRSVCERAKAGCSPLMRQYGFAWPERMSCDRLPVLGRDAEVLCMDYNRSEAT
# Procedure: as §1, §2, §3, §4
# FZD9 CRD = biological target: T3, FZD9 CRD (Homo sapiens, UniProt O00144); test: as above
# T3 construct: G35-A161; GPI anchor signal (C); expressed in transfected cells; host or cells: CHO cells, lentiviral pLenti-puro
# T3 sequence (O00144 35-161): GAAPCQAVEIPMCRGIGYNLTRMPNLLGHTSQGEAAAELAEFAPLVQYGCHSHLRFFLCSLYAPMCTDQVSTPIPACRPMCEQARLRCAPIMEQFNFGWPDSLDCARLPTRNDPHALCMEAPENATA
# Procedure: as §1, §2, §3, §4
# FZD1 CRD = biological target: T4, FZD1 CRD (Homo sapiens, UniProt Q9UP38); test: Immunofluorescence of anti-FZD5 Fab binding to CHO cells overexpressing Frizzled CRD; parameters: key: −: no binding; +: very weak binder; ++: weak binder; +++: good binder; ++++: very good binder
# T4 construct: D112-P238; GPI anchor signal (C); expressed in transfected cells; host or cells: CHO cells, lentiviral pLenti-puro
# Procedure: as §1, §3, §4
# FZD10 CRD [2] = biological target: T1, FZD10 CRD; test: as above; parameters: key: −: no binding; +: very weak binder; ++: weak binder; +++: good binder; ++++: very good binder
# Procedure: as §1, §3, §4
# FZD2 CRD = biological target: T5, FZD2 CRD (Homo sapiens, UniProt Q14332); test: as above; parameters: key: −: no binding; +: very weak binder; ++: weak binder; +++: good binder; ++++: very good binder
# T5 construct: D35-P161; GPI anchor signal (C); expressed in transfected cells; host or cells: CHO cells, lentiviral pLenti-puro
# Procedure: as §1, §3, §4
# FZD4 CRD = biological target: T6, FZD4 CRD (Homo sapiens, UniProt Q9ULV1); test: as above; parameters: key: −: no binding; +: very weak binder; ++: weak binder; +++: good binder; ++++: very good binder
# T6 construct: E42-V167; GPI anchor signal (C); expressed in transfected cells; host or cells: CHO cells, lentiviral pLenti-puro
# T6 sequence (Q9ULV1 42-167): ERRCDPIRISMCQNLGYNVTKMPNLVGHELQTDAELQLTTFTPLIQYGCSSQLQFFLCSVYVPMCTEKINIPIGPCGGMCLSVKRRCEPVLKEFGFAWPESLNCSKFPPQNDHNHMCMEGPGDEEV
# Procedure: as §1, §3, §4
# FZD7 CRD = biological target: T7, FZD7 CRD (Homo sapiens, UniProt O75084); test: as above; parameters: key: −: no binding; +: very weak binder; ++: weak binder; +++: good binder; ++++: very good binder
# T7 construct: D45-S169; GPI anchor signal (C); expressed in transfected cells; host or cells: CHO cells, lentiviral pLenti-puro
# Procedure: as §1, §3, §4
substance,measurement,setting,value
"Fab-2931: anti-FZD5 Fab with antibody variable region Fv-2931; CDR SEQ ID NOs: 35, 36, 70, 102, 146, 176 (CDR 1 QSVSSA; CDR 2 SAS; CDR 3 QQSSYSLIT; CDR 4 GFNLSYSS; CDR 5 ISPYSGST; CDR 6 ARGSYWYVGGGWWVSGHGGMDY)","Median fluorescence, Frizzled CRD overexpressed on CHO cells: FZD10",FZD10 CRD [1],2.59
same,"Median fluorescence, Frizzled CRD overexpressed on CHO cells: FZD5",FZD5 CRD,28.13
same,"Median fluorescence, Frizzled CRD overexpressed on CHO cells: FZD9",FZD9 CRD,2.76
same,"Immunofluorescence binding, Frizzled CRD overexpressed on CHO cells: FZD1",FZD1 CRD,−
same,"Immunofluorescence binding, Frizzled CRD overexpressed on CHO cells: FZD10",FZD10 CRD [2],−
same,"Immunofluorescence binding, Frizzled CRD overexpressed on CHO cells: FZD2",FZD2 CRD,+
same,"Immunofluorescence binding, Frizzled CRD overexpressed on CHO cells: FZD4",FZD4 CRD,−
same,"Immunofluorescence binding, Frizzled CRD overexpressed on CHO cells: FZD7",FZD7 CRD,+
